Key:
Experiment in all cases: IP/MS, LZTR1 R810W-FLAG, U87
[1] = target: T1, CC2D1A (human, UniProt Q6P1N0 1-951, limits assumed)
T1 sequence (looked up): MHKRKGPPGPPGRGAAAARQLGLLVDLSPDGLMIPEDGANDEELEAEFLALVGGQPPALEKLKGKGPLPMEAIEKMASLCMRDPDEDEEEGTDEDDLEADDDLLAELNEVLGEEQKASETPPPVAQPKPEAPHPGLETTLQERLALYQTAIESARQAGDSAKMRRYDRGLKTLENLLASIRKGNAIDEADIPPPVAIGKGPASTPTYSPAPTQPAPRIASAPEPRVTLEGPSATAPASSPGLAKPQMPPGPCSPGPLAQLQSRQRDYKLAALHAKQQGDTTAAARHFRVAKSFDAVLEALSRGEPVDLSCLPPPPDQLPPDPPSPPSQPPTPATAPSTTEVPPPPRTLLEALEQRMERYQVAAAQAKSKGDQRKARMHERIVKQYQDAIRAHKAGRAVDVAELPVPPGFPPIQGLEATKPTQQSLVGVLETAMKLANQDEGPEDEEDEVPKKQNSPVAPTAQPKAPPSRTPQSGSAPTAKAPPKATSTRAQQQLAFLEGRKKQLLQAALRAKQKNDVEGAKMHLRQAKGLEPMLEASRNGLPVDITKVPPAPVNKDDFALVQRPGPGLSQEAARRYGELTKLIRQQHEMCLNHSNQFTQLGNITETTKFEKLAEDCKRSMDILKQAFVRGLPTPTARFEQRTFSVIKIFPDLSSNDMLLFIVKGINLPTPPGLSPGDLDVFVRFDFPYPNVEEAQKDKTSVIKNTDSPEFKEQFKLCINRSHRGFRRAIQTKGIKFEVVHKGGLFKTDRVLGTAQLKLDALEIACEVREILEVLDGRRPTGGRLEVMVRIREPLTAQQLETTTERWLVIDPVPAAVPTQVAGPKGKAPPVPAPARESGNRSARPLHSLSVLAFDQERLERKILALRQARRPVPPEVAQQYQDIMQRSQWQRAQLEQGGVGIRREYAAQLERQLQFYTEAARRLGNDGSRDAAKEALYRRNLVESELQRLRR
Outline: (§1)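 Gel slices were reduced with 5 mM DTT, alkylated with 11 mM IAA and digested overnight at 37° C. with trypsin. Peptides were analysed on an Orbitrap Fusion Tribrid by LC-MS/MS.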

[2] = target: TRIO (human, UniProt O75962 1-3097, limits assumed)
Outline: as §1

[3] = target: T2, USP4 (human, UniProt Q13107 1-963, limits assumed)
T2 sequence (looked up): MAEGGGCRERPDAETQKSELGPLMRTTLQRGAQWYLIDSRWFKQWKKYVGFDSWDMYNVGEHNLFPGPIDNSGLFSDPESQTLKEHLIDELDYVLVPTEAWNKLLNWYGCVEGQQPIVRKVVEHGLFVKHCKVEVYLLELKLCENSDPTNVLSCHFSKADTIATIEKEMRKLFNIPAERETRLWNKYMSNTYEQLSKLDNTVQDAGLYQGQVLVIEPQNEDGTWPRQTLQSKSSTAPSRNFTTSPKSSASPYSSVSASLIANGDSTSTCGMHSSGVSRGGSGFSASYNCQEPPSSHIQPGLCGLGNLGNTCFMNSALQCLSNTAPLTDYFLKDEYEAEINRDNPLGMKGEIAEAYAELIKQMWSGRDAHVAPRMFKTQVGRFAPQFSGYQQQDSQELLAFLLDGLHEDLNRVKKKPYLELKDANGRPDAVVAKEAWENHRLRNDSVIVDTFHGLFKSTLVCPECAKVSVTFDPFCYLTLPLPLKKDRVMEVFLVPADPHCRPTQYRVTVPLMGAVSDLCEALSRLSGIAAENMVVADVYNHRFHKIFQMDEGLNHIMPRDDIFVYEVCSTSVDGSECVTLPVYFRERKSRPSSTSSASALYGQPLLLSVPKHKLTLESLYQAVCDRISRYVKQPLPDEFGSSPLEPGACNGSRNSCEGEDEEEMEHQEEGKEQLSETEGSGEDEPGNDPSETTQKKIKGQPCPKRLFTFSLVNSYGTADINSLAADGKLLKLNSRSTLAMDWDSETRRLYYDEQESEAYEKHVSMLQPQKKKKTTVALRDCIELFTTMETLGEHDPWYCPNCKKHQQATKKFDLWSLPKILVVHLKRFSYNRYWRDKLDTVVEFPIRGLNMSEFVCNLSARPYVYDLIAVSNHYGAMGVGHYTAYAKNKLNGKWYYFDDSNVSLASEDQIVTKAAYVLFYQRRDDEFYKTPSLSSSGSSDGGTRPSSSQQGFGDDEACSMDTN
Outline: as §1

Measured: binding result

B1: LZTR1 R810W-FLAG (other, human, UniProt Q8N653 1-840, looked up)
chain: MAGPGSTGGQIGAAALAGGARSKVAPSVDFDHSCSDSVEYLTLNFGPFETVHRWRRLPPCDEFVGARRSKHTVVAYKDAIYVFGGDNGKTMLNDLLRFDVKDCSWCRAFTTGTPPAPRYHHSAVVYGSSMFVFGGYTGDIYSNSNLKNKNDLFEYKFATGQWTEWKIEGRLPVARSAHGATVYSDKLWIFAGYDGNARLNDMWTIGLQDRELTCWEEVAQSGEIPPSCCNFPVAVCRDKMFVFSGQSGAKITNNLFQFEFKDKTWTRIPTEHLLRGSPPPPQRRYGHTMVAFDRHLYVFGGAADNTLPNELHCYDVDFQTWEVVQPSSDSEVGGAEVPERACASEEVPTLTYEERVGFKKSRDVFGLDFGTTSAKQPTQPASELPSGRLFHAAAVISDAMYIFGGTVDNNIRSGEMYRFQFSCYPKCTLHEDYGRLWESRQFCDVEFVLGEKEECVQGHVAIVTARSRWLRRKITQARERLAQKLEQEAAPVPREAPGVAAGGARPPLLHVAIREAEARPFEVLMQFLYTDKIKYPRKGHVEDVLLIMDVYKLALSFQLCRLEQLCRQYIEASVDLQNVLVVCESAARLQLSQLKEHCLNFVVKESHFNQVIMMKEFERLSSPLIVEIVRRKQQPPPRTPLDQPVDIGTSLIQDMKAYLEGAGAEFCDITLLLDGHPRPAHKAILAARSSYFEAMFRSFMPEDGQVNISIGEMVPSRQAFESMLRYIYYGEVNMPPEDSLYLFAAPYYYGFYNNRLQAYCKQNLEMNVTVQNVLQILEAADKTQALDMKRHCLHIIVHQFTKVSKLPTLWSLSQQLLLDIIDSLASHISDKQCAELGADI
notes: Stably expressed in U87 cells by lentivirus; also called LZTR1-FLAG-R810W; LZTR1 RW; not shown: FLAG tag
binds: all assays above
